Experimental findings from paper PMC6222095 are described below.

The assay addresses T1, complement factor H, homozygous Tyr-402/Val-62 allotype (human), P08603.
T1 chain: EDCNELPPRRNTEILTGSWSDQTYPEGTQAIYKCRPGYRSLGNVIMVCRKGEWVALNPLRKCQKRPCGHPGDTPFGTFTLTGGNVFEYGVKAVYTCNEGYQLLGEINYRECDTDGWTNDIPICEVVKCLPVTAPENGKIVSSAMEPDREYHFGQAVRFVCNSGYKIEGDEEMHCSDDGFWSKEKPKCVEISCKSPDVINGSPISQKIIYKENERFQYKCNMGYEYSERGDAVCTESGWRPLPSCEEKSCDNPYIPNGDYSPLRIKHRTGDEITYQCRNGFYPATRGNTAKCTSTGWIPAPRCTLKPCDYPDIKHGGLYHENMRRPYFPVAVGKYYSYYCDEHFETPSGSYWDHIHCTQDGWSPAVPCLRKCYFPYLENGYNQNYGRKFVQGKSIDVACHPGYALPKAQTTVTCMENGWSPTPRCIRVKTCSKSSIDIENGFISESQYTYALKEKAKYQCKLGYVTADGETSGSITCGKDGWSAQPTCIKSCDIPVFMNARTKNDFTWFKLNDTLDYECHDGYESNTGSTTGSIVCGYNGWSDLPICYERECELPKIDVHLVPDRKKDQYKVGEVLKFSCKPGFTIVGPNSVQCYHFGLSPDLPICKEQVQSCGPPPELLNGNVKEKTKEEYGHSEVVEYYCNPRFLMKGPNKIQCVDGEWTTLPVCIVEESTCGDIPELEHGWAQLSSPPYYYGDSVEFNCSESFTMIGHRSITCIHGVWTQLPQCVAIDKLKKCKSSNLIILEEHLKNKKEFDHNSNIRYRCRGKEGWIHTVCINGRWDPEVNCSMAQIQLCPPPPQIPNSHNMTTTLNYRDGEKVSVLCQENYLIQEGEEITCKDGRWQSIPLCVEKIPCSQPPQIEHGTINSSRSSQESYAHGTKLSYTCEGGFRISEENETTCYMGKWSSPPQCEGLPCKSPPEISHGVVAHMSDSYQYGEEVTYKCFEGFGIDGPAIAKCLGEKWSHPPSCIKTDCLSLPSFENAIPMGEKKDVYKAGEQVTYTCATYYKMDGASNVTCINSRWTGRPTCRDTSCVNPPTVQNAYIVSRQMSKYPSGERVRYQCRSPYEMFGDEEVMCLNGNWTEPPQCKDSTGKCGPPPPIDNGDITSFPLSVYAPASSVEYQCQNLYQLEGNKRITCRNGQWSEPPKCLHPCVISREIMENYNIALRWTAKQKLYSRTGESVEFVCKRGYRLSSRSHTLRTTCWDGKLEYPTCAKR
As to the kind of experiment: SPR. Conditions: natural protein, eight biantennary disialylated N-glycans, sites as printed: Asn-511, Asn-700, Asn-784, Asn-804, Asn-864, Asn-892, Asn-1011, Asn-1077, remark: other sources report otherwise.

B1: complement factor H, homozygous Tyr-402/Val-62 allotype, P08603 19-1231 (protein)
chain: EDCNELPPRRNTEILTGSWSDQTYPEGTQAIYKCRPGYRSLGNVIMVCRKGEWVALNPLRKCQKRPCGHPGDTPFGTFTLTGGNVFEYGVKAVYTCNEGYQLLGEINYRECDTDGWTNDIPICEVVKCLPVTAPENGKIVSSAMEPDREYHFGQAVRFVCNSGYKIEGDEEMHCSDDGFWSKEKPKCVEISCKSPDVINGSPISQKIIYKENERFQYKCNMGYEYSERGDAVCTESGWRPLPSCEEKSCDNPYIPNGDYSPLRIKHRTGDEITYQCRNGFYPATRGNTAKCTSTGWIPAPRCTLKPCDYPDIKHGGLYHENMRRPYFPVAVGKYYSYYCDEHFETPSGSYWDHIHCTQDGWSPAVPCLRKCYFPYLENGYNQNYGRKFVQGKSIDVACHPGYALPKAQTTVTCMENGWSPTPRCIRVKTCSKSSIDIENGFISESQYTYALKEKAKYQCKLGYVTADGETSGSITCGKDGWSAQPTCIKSCDIPVFMNARTKNDFTWFKLNDTLDYECHDGYESNTGSTTGSIVCGYNGWSDLPICYERECELPKIDVHLVPDRKKDQYKVGEVLKFSCKPGFTIVGPNSVQCYHFGLSPDLPICKEQVQSCGPPPELLNGNVKEKTKEEYGHSEVVEYYCNPRFLMKGPNKIQCVDGEWTTLPVCIVEESTCGDIPELEHGWAQLSSPPYYYGDSVEFNCSESFTMIGHRSITCIHGVWTQLPQCVAIDKLKKCKSSNLIILEEHLKNKKEFDHNSNIRYRCRGKEGWIHTVCINGRWDPEVNCSMAQIQLCPPPPQIPNSHNMTTTLNYRDGEKVSVLCQENYLIQEGEEITCKDGRWQSIPLCVEKIPCSQPPQIEHGTINSSRSSQESYAHGTKLSYTCEGGFRISEENETTCYMGKWSSPPQCEGLPCKSPPEISHGVVAHMSDSYQYGEEVTYKCFEGFGIDGPAIAKCLGEKWSHPPSCIKTDCLSLPSFENAIPMGEKKDVYKAGEQVTYTCATYYKMDGASNVTCINSRWTGRPTCRDTSCVNPPTVQNAYIVSRQMSKYPSGERVRYQCRSPYEMFGDEEVMCLNGNWTEPPQCKDSTGKCGPPPPIDNGDITSFPLSVYAPASSVEYQCQNLYQLEGNKRITCRNGQWSEPPKCLHPCVISREIMENYNIALRWTAKQKLYSRTGESVEFVCKRGYRLSSRSHTLRTTCWDGKLEYPTCAKR
On to B1, for which the Kd is > 40 µM.

Broadly, the Kd is the free concentration of one partner at which half of the binding sites on the other are occupied at equilibrium, for simple one-to-one binding.
